Laboratory results reported in the supplement of paper PMC12667976.
± gives the standard error.

B1: library; numbered along this chain (parent)
chain: MATDAALRRLLRLHRTEIAVAVDSAFPLLHALADHDVVPEDKFQETLHLKEKEGCPQAFHALLSWLLTQDSTAILDFWRVLFKDYNLERYGRLQPILDSFPKDVDLSQPRKGRKPPAVPKALVPPPRLPTKRKASEEARAAAPAALTPRGTASPGSQLKAKPPKKPESSAEQQRLPLGNGIQTMSASVQRAVAMSSGDVPGARGAVEGILIQQVFESGGSKKCIQVGGEFYTPSKFEDSGSGKNKARSSSGPKPLVRAKGAQGAAPGGGEARLGQQGSVPAPLALPSDPQLHQKNEDECAVCRDGGELICCDGCPRAFHLACLSPPLREIPSGTWRCSSCLQATVQEVQPRAEEPRPQEPPVETPLPPGLRSAGEEVRGPPGEPLAGMDTTLVYKHLPAPPSAAPLPGLDSSALHPLLCVGPEGQQNLAPGARCGVCGDGTDVLRCTHCAAAFHWRCHFPAGTSRPGTGLRCRSCSGDVTPAPVEGVLAPSPARLAPGPAKDDTASHEPALHRDDLESLLSEHTFDGILQWAIQSMARPAAPFPS

Variants of: B1
Test: AIRE transcriptional activation functional score (insulin promoter-GFP; nonsense median 0, synonymous median 1) (normalised score); higher = higher AIRE activity (more reporter activation)
Conditions: with insulin promoter-GFP reporter in HEK293
Description: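 Deep mutational scan of full-length human AIRE (codon-optimized cDNA, DT-POPCode NNN libraries over three regions) integrated at a Bxb1 landing pad in HEK293 cells carrying an insulin core promoter-GFP reporter at a Flp-In site. Cells were sorted for the top 10% GFP about 14 days after transfection. Variant frequency log-ratios (select vs non-select, TileSeq) were rescaled so that the nonsense median is 0 and the synonymous median is 1, then averaged over biological replicates.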

Variant | AIRE transcriptional activation functional score
L406C | 1.3 ± 0.17
T463C | 1.42 ± 0.16
A5N | 0.61 ± 0.13
G54H | 0.133 ± 0.29
L397T | 0.852 ± 0.14
E237K | 0.979 ± 0.16
E237D | 0.996 ± 0.086
S491F | 1.05 ± 0.048
E137H | 0.409 ± 0.23
E137P | 1.18 ± 0.076
R494G | 0.344 ± 0.28
R494H | 1.7 ± 0.12
R494V | 1.27 ± 0.043
R494Q | 0.696 ± 0.14
G201K | 0.778 ± 0.27
Q225T | 0.688 ± 0.18
H35N | 0.76 ± 0.11
H30K | 0.682 ± 0.08
H60E | -0.56 ± 0.42
H60N | 0.179 ± 0.12
R149Y | 0.303 ± 0.2
I528L | 0.543 ± 0.48
P497R | 0.646 ± 0.21
A142Y | 1.14 ± 0.12

Variant | AIRE transcriptional activation functional score
D514W | -0.252 ± 0.11
N427C | 1.1 ± 0.23
S412W | 1.72 ± 0.022
S412Y | 1.5 ± 0.088
F230E | 0.377 ± 0.23
A271T | 0.847 ± 0.23
S99P | 1.51 ± 0.14
P367E | 1.46 ± 0.11
A31F | -0.218 ± 0.19
N179E | 1.14 ± 0.4
I330G | 1.16 ± 0.2
I330V | 0.684 ± 0.36
P148S | 1.19 ± 0.36
S107I | 1.02 ± 0.21
S372G | 0.89 ± 0.1
S372A | 1.16 ± 0.27
S372R | 1.16 ± 0.086
Q530V | -0.295 ± 0.23
A19P | -0.228 ± 0.44
V479Q | 1.24 ± 0.31
V479R | 0.978 ± 0.11
V479H | 1.16 ± 0.12
P289K | 1.39 ± 0.21
P289D | -0.468 ± 0.061

Variant | AIRE transcriptional activation functional score
P289T | 1.37 ± 0.35
G204N | 0.413 ± 0.31
A505C | 0.52 ± 0.2
A265G | 0.964 ± 0.1
Y394S | 0.848 ± 0.26
Y394Q | -0.333 ± 0.14
Y394E | 0.49 ± 0.066
R538T | 0.72 ± 0.23
H319N | 1.26 ± 0.094
V206H | 0.927 ± 0.24
C302Q | 0.705 ± 0.061
P27Y | -0.654 ± 0.33
E347W | 1.24 ± 0.016
P492L | 1.02 ± 0.38
G269D | 0.649 ± 0.084
G269T | 1.51 ± 0.13
T183N | 1.18 ± 0.098
T183S | 0.952 ± 0.32
P542A | 1.19 ± 0.2
Q213E | 0.718 ± 0.36
D23A | -0.24 ± 0.37
P481A | 0.586 ± 0.34
F77N | -0.429 ± 1
K102L | 0.643 ± 0.63

Variant | AIRE transcriptional activation functional score
D105C | 0.824 ± 0.051
P39Y | -1.28 ± 0.23
D76R | 0.463 ± 0.69
D76I | 0.22 ± 0.4
P252T | 0.961 ± 0.079
C472I | 0.154 ± 0.19
S521I | 0.551 ± 0.18
A58P | -0.271 ± 0.71
L470P | 0.863 ± 0.21
P350E | 1.04 ± 0.11
G387C | 0.799 ± 0.25
Y85P | -0.276 ± 0.62
P115H | 1.03 ± 0.71
P115F | 1.5 ± 0.58
F525L | 0.45 ± 0.058
S287C | 1.07 ± 0.13
V279P | 1.06 ± 0.19
V279F | 1.69 ± 0.43
L273T | 0.77 ± 0.41
P398Y | 1.69 ± 0.068
A21G | 0.0519 ± 0.54
A21N | 0.54 ± 0.18
W65Y | -0.365 ± 0.21
F543W | 1.23 ± 0.085

Variant | AIRE transcriptional activation functional score
F543I | 0.17 ± 0.19
F43L | 0.0431 ± 0.38
D312Y | 0.942 ± 0.18
L67H | 0.742 ± 0.33
A205T | 1.19 ± 0.24
S168H | 1.23 ± 0.37
D442N | 0.93 ± 0.046
D36A | 0.22 ± 0.32
T344E | 0.714 ± 0.21
A284D | 1.06 ± 0.14
P116I | 1.36 ± 0.24
A482R | 0.557 ± 0.26
A482Y | 1.42 ± 0.1
A482S | 1.34 ± 0.11
H396C | 1.33 ± 0.047
V20Y | 0.662 ± 0.42
S185G | 0.881 ± 0.2
A246S | 0.759 ± 0.27
K245C | 1 ± 0.14
P460H | 1.05 ± 0.09
P460M | 1.17 ± 0.068
P460E | 1.16 ± 0.098
Q44T | 0.288 ± 0.37
E375Y | 1.51 ± 0.059

Variant | AIRE transcriptional activation functional score
C311L | 0.839 ± 0.16
Q212C | 1.01 ± 0.12
Q212V | -0.424 ± 0.34
D515M | -0.0216 ± 0.062
P483I | 1.6 ± 0.16
R15I | 0.486 ± 0.75
M388Q | 0.232 ± 0.12
L66H | 0.316 ± 0.2
R378A | 0.851 ± 0.32
Q173F | 1.97 ± 0.15
A160M | 0.0796 ± 0.22
R79H | 1.25 ± 0.16
H14Q | 0.144 ± 0.28
A537C | 0.622 ± 0.053
A33L | 0.173 ± 0.67
E359R | 1.02 ± 0.24
L519D | 0.255 ± 0.11
L519S | 0.255 ± 0.14
G268M | 1.12 ± 0.1
G268A | 0.981 ± 0.18
K243M | 1.31 ± 0.057
Q69Y | 0.498 ± 0.32
A343I | 1.36 ± 0.074
P124C | 1.15 ± 0.32

Variant | AIRE transcriptional activation functional score
P124M | 1.48 ± 0.096
A432I | 0.534 ± 0.21
A73F | 0.15 ± 0.087
Q276A | 1.12 ± 0.1
P200H | 1.08 ± 0.036
S241P | 1.31 ± 0.14
S241W | 0.868 ± 0.021
S241M | 1.1 ± 0.066
S241V | 0.868 ± 0.2
S324V | 0.994 ± 0.27
C223T | 1.15 ± 0.36
R139H | 0.679 ± 0.53
C337A | 1.51 ± 0.18
S24C | 0.658 ± 0.088
T504Y | 1.77 ± 0.32
T504M | 0.913 ± 0.12
L63N | 0.0814 ± 0.2
L175E | -0.0357 ± 0.4
W78K | 0.0822 ± 0.16
T334P | 0.902 ± 0.28
A429K | 0.0334 ± 0.24
S411G | 0.952 ± 0.18
A352I | 1.08 ± 0.24
